# Results: patent US20160193299A1, “MODIFIED NUCLEOSIDE, NUCLEOTIDE, AND NUCLEIC ACID COMPOSITIONS” (Moderna Therapeutics, Inc., priority 2011, published 2016)
# B1: G-CSF: human G-CSF mRNA SEQ ID NO: 6, polyA ~160 nt, Cap1, fully modified with 5-methylcytosine and pseudouridine (nucleic acid, listed as Homo sapiens)
# chain: GGGAAAUAAGAGAGAAAAGAAGAGUAAGAAGAAAUAUAAGAGCCACCAUGGCCGGUCCCGCGACCCAAAGCCCCAUGAAACUUAUGGCCCUGCAGUUGCUGCUUUGGCACUCGGCCCUCUGGACAGUCCAAGAAGCGACUCCUCUCGGACCUGCCUCAUCGUUGCCGCAGUCAUUCCUUUUGAAGUGUCUGGAGCAGGUGCGAAAGAUUCAGGGCGAUGGAGCCGCACUCCAAGAGAAGCUCUGCGCGACAUACAAACUUUGCCAUCCCGAGGAGCUCGUACUGCUCGGGCACAGCUUGGGGAUUCCCUGGGCUCCUCUCUCGUCCUGUCCGUCGCAGGCUUUGCAGUUGGCAGGGUGCCUUUCCCAGCUCCACUCCGGUUUGUUCUUGUAUCAGGGACUGCUGCAAGCCCUUGAGGGAAUCUCGCCAGAAUUGGGCCCGACGCUGGACACGUUGCAGCUCGACGUGGCGGAUUUCGCAACAACCAUCUGGCAGCAGAUGGAGGAACUGGGGAUGGCACCCGCGCUGCAGCCCACGCAGGGGGCAAUGCCGGCCUUUGCGUCCGCGUUUCAGCGCAGGGCGGGUGGAGUCCUCGUAGCGAGCCACCUUCAAUCAUUUUUGGAAGUCUCGUACCGGGUGCUGAGACAUCUUGCGCAGCCGUGAAGCGCUGCCUUCUGCGGGGCUUGCCUUCUGGCCAUGCCCUUCUUCUCUCCCUUGCACCUGUACCUCUUGGUCUUUGAAUAAAGCCUGAGUAGGAAG
# modifications: polyA ~160, Cap1, 5mC/pseudouridine modified
# What was measured:
# [1] = test system: G-CSF; assay: Example 16 lipid nanoparticle in vivo study, serum G-CSF ELISA; set-up: species or system mice; settings: for G-CSF Serum Concentration 8-12 hours after administration: IV (LNP); for G-CSF Protein Expression, Conc: mice IV LNP, serum 8 hrs
# Protocol: Mice were sacrificed at 8 hrs after dosing. […] Protein expression was determined by ELISA.
# As used in Table 30, the symbol “˜” means about.
# [2] = test system: G-CSF; assay: Example 19 LNP formulations in mice, serum G-CSF ELISA; assay type: in vivo; settings: for G-CSF Serum Concentration: mice IV (n=4); for G-CSF protein expression detectable at least out to: mice IV
# Protocol: Formulations, listed in Table 31, were characterized by particle size, zeta potential, and encapsulation.
# LNP formulations, shown in Table 31 (above), were administered to mice (n=4) intravenously (IV) at a single modified mRNA dose 0.05 mg/kg or 0.005 mg/kg. There was also 3 control groups of mice (n=4) that were untreated. The mice were bled at 2 hours, 8 hours, 24 hours, 48 hours and 72 hours after they were administered with G-CSF or EPO modified mRNA formulations to determine the protein expression. Protein expression of G-CSF and EPO were determined using ELISA.
# [3] = test system: red blood cell (RBC); assay: Example 22 non-human primate study, red blood cell (RBC) count; assay type: in vivo, cynomolgus monkey
# Protocol: (§1) LNP formulations, shown in Table 31 (above), were administered to non-human primates (NHP) (cynomolgus monkey) (n=2) as intravenous injection (IV). The NHP were administered a single modified mRNA IV dose of 0.5 mg/kg, 0.05 mg/kg or 0.005 mg/kg of G-CSF or EPO in a dose volume of 0.5 mL/kg. The NHPs were bled before dosing with the modified mRNA LNP formulations to determine protein expression in the serum and a baseline complete blood count. After administration with the G-CSF modified mRNA formulation the NHP were bled at 8, 24, 48 and 72 hours to determined protein expression. After administration with the EPO modified mRNA formulation the NHP were bled at 8, 24, 48, 72 hours and 7 days to determined protein expression.
# [4] = test system: aspartate transaminase (AST); assay: Example 22 non-human primate study, serum chemistry aspartate transaminase (AST); assay type: in vivo, cynomolgus monkey
# Protocol: as §1
# [5] = test system: interferon-alpha (IFN-alpha); assay: Example 22 non-human primate study, cytokine interferon-alpha (IFN-alpha); assay type: in vivo, cynomolgus monkey
# Protocol: as §1
# [6] = test system: neutrophil count; assay: Example 41 intravenous administration of lipoplexed G-CSF mRNA, neutrophil count; assay type: in vivo; settings: mice IV, 10% lipoplex, 50 ug at days 0, 2, 4; day 5
# Protocol: Neutrophils were measured at days 1, 5 and 8. Controls included non-specific mammalian RNA or the formulation buffer alone (F.Buffer). The mice were bled at days 1, 5 and 8 to determine the effect of mRNA-encoded human G-CSF to increase neutrophil count. The dosing regimen is shown in Table 64 as are the resulting neutrophil counts (thousands/uL; K/uL).
# [7] = test system: human G-CSF; assay: Example 42A saline formulation IM, serum human G-CSF; assay type: in vivo, mice; settings: G-CSF group: human G-CSF in mouse serum, IM 100 ug, 13 hours
# Protocol: The mice were bled at 13 hours after the injection to determine the concentration of the human polypeptide in serum in pg/mL (G-CSF groups measured human G-CSF in mouse serum and EPO groups measured human EPO in mouse serum).
# [8] = test system: HEK293; assay: Example 46B percent-modified G-CSF mRNA transfected in HEK293, secreted G-CSF ELISA; assay type: cell-based, human
# Protocol: Human embryonic kidney epithelial (HEK293) cells were seeded on 96-well plates at a density of 30,000 cells per well in 100 ul cell culture medium. 250 ng of modified G-CSF mRNA (SEQ ID NO: 6; polyA tail of approximately 160 nucleotides not shown in sequence; 5′cap, Cap1) formulated with RNAiMAX™ (Invitrogen, Carlsbad, Calif.) was added to a well. The G-CSF was completely modified with 5mC and pseudoU (100% modification), not modified with 5mC and pseudoU (0% modification) or was partially modified with 5mC and pseudoU so the mRNA would contain 75% modification, 50% modification or 25% modification. Control samples (AK 5/2, mCherry (SEQ ID NO: 7; polyA tail of approximately 160 nucleotides not shown in sequence; 5′cap, Cap1; fully modified 5mC and pseudoU) and untreated) were also analyzed. […] The supernatants were harvested after 16 hours and the secreted G-CSF protein was analyzed by ELISA.
# [9] = Female NHP, 0.005 mg/kg, 7 days
# [10] = Female NHP, 0.005 mg/kg, Pre-dose
# [11] = Female NHP, 0.05 mg/kg, Pre-dose
# [12] = Female NHP, 0.5 mg/kg, Pre-dose
# [13] = Male NHP, 0.005 mg/kg, Pre-dose
# [14] = Female NHP, 0.005 mg/kg, 4 days
molecule,measurement,setting,value
B1,G-CSF Serum Concentration 8-12 hours after administration,[1]; 1 ug,"~20,000 pg/ml"
same,G-CSF Serum Concentration 8-12 hours after administration,[1]; 10 ug,"~1,000,000 pg/ml"
same,G-CSF Serum Concentration 8-12 hours after administration,[1]; 100 ug,"~5,000,000 pg/ml"
same,"G-CSF Protein Expression, Conc",[1]; 10 ug,1204.82 ng/mL
same,"G-CSF Protein Expression, Conc",[1]; 100 ug,4722.20 ng/mL
same,G-CSF Serum Concentration,"[2]; 0.005 mg/kg, 2 hours","3,447.8 pg/ml"
same,G-CSF Serum Concentration,"[2]; 0.005 mg/kg, 8 hours","11,454.0 pg/ml"
same,G-CSF Serum Concentration,"[2]; 0.005 mg/kg, 24 hours","4,960.2 pg/ml"
same,G-CSF Serum Concentration,"[2]; 0.005 mg/kg, 48 hours",686.4 pg/mL
same,G-CSF Serum Concentration,"[2]; 0.05 mg/kg, 2 hours","20,951.4 pg/ml"
same,G-CSF Serum Concentration,"[2]; 0.05 mg/kg, 8 hours","70,012.8 pg/ml"
same,G-CSF Serum Concentration,"[2]; 0.05 mg/kg, 24 hours","19,356.2 pg/ml"
same,G-CSF Serum Concentration,"[2]; 0.05 mg/kg, 48 hours","1,963.0 pg/ml"
same,G-CSF Serum Concentration,"[2]; 0.05 mg/kg, 72 hours",47.3 pg/mL
same,G-CSF protein expression detectable at least out to,[2]; 0.005 mg/kg,≥ 48 h
same,G-CSF protein expression detectable at least out to,[2]; 0.05 mg/kg,≥ 72 h
same,RBC,"[3]; Female NHP, 0.005 mg/kg, 14/18 days",5.34 10^12/L
same,RBC,"[3]; Female NHP, 0.005 mg/kg, 24 hours",5.35 10^12/L
same,RBC,"[3]; Female NHP, 0.005 mg/kg, 3 days",5.24 10^12/L
same,RBC,[3]; [9],5.34 10^12/L
same,RBC,[3]; [10],5.36 10^12/L
same,RBC,"[3]; Female NHP, 0.05 mg/kg, 14/18 days",5.26 10^12/L
same,RBC,"[3]; Female NHP, 0.05 mg/kg, 24 hours",5.08 10^12/L
same,RBC,"[3]; Female NHP, 0.05 mg/kg, 3 days",5.04 10^12/L
same,RBC,"[3]; Female NHP, 0.05 mg/kg, 7 days",5.05 10^12/L
same,RBC,[3]; [11],5.64 10^12/L
same,RBC,"[3]; Female NHP, 0.5 mg/kg, 14/18 days",4.92 10^12/L
same,RBC,"[3]; Female NHP, 0.5 mg/kg, 24 hours",4.96 10^12/L
same,RBC,"[3]; Female NHP, 0.5 mg/kg, 3 days",4.97 10^12/L
same,RBC,"[3]; Female NHP, 0.5 mg/kg, 7 days",5.04 10^12/L
same,RBC,[3]; [12],5.57 10^12/L
same,RBC,"[3]; Male NHP, 0.005 mg/kg, 14/18 days",5.37 10^12/L
same,RBC,"[3]; Male NHP, 0.005 mg/kg, 24 hours",5.34 10^12/L
same,RBC,"[3]; Male NHP, 0.005 mg/kg, 3 days",5.32 10^12/L
same,RBC,"[3]; Male NHP, 0.005 mg/kg, 7 days",5.25 10^12/L
same,RBC,[3]; [13],5.67 10^12/L
same,RBC,"[3]; Male NHP, 0.05 mg/kg, 14/18 days",5.43 10^12/L
same,RBC,"[3]; Male NHP, 0.05 mg/kg, 24 hours",4.96 10^12/L
same,RBC,"[3]; Male NHP, 0.05 mg/kg, 3 days",5.13 10^12/L
same,RBC,"[3]; Male NHP, 0.05 mg/kg, 7 days",5.17 10^12/L
same,RBC,"[3]; Male NHP, 0.05 mg/kg, Pre-dose",5.68 10^12/L
same,RBC,"[3]; Male NHP, 0.5 mg/kg, 14/18 days",4.21 10^12/L
same,RBC,"[3]; Male NHP, 0.5 mg/kg, 24 hours",4.66 10^12/L
same,RBC,"[3]; Male NHP, 0.5 mg/kg, 3 days",4.91 10^12/L
same,RBC,"[3]; Male NHP, 0.5 mg/kg, 7 days",4.8 10^12/L
same,RBC,"[3]; Male NHP, 0.5 mg/kg, Pre-dose",5.57 10^12/L
same,AST,"[4]; Female NHP, 0.005 mg/kg, 2 days",34 U/L
same,AST,[4]; [14],36 U/L
same,AST,[4]; [9],31 U/L
same,AST,"[4]; Female NHP, 0.005 mg/kg, 14 days",20 U/L
same,AST,[4]; [10],54 U/L
same,AST,"[4]; Female NHP, 0.05 mg/kg, 2 days",34 U/L
same,AST,"[4]; Female NHP, 0.05 mg/kg, 4 days",42 U/L
same,AST,"[4]; Female NHP, 0.05 mg/kg, 7 days",52 U/L
same,AST,"[4]; Female NHP, 0.05 mg/kg, 14 days",20 U/L
same,AST,[4]; [11],33 U/L
same,AST,"[4]; Female NHP, 0.5 mg/kg, 2 days",294 U/L
same,AST,"[4]; Female NHP, 0.5 mg/kg, 4 days",63 U/L
same,AST,"[4]; Female NHP, 0.5 mg/kg, 7 days",68 U/L
same,AST,"[4]; Female NHP, 0.5 mg/kg, 14 days",67 U/L
same,AST,[4]; [12],47 U/L
same,AST,"[4]; Male NHP, 0.005 mg/kg, 2 days",70 U/L
same,AST,"[4]; Male NHP, 0.005 mg/kg, 4 days",39 U/L
same,AST,"[4]; Male NHP, 0.005 mg/kg, 7 days",28 U/L
same,AST,"[4]; Male NHP, 0.005 mg/kg, 14 days",39 U/L
same,AST,[4]; [13],35 U/L
same,AST,"[4]; Male NHP, 0.05 mg/kg, 2 days",95 U/L
same,AST,"[4]; Male NHP, 0.05 mg/kg, 4 days",69 U/L
same,AST,"[4]; Male NHP, 0.05 mg/kg, 7 days",62 U/L
same,AST,"[4]; Male NHP, 0.05 mg/kg, 14 days",59 U/L
same,AST,"[4]; Male NHP, 0.05 mg/kg, Pre-dose",99 U/L
same,AST,"[4]; Male NHP, 0.5 mg/kg, 2 days",196 U/L
same,AST,"[4]; Male NHP, 0.5 mg/kg, 4 days",67 U/L
same,AST,"[4]; Male NHP, 0.5 mg/kg, 7 days",53 U/L
same,AST,"[4]; Male NHP, 0.5 mg/kg, 14 days",47 U/L
same,AST,"[4]; Male NHP, 0.5 mg/kg, Pre-dose",32 U/L
same,IFN-alpha,[5]; [14],0 pg/mL
same,IFN-alpha,"[5]; Female NHP, 0.005 mg/kg, Day 1 + 8 hr",0 pg/mL
same,IFN-alpha,[5]; [10],0 pg/mL
same,IFN-alpha,"[5]; Female NHP, 0.05 mg/kg, 4 days",0 pg/mL
same,IFN-alpha,"[5]; Female NHP, 0.05 mg/kg, Day 1 + 8 hr",0 pg/mL
same,IFN-alpha,[5]; [11],0 pg/mL
same,IFN-alpha,"[5]; Female NHP, 0.5 mg/kg, 4 days",0 pg/mL
same,IFN-alpha,"[5]; Female NHP, 0.5 mg/kg, Day 1 + 8 hr",529.2 pg/mL
same,IFN-alpha,[5]; [12],0 pg/mL
same,IFN-alpha,"[5]; Male NHP, 0.005 mg/kg, 4 days",0 pg/mL
same,IFN-alpha,"[5]; Male NHP, 0.005 mg/kg, Day 1 + 8 hr",0 pg/mL
same,IFN-alpha,[5]; [13],0 pg/mL
same,IFN-alpha,"[5]; Male NHP, 0.05 mg/kg, 4 days",0 pg/mL
same,IFN-alpha,"[5]; Male NHP, 0.05 mg/kg, Day 1 + 8 hr",0 pg/mL
same,IFN-alpha,"[5]; Male NHP, 0.05 mg/kg, Pre-dose",0 pg/mL
same,IFN-alpha,"[5]; Male NHP, 0.5 mg/kg, 4 days",0 pg/mL
same,IFN-alpha,"[5]; Male NHP, 0.5 mg/kg, Day 1 + 8 hr",503.8 pg/mL
same,IFN-alpha,"[5]; Male NHP, 0.5 mg/kg, Pre-dose",0 pg/mL
same,increase in neutrophil count above control,[6],four to five fold increase
same,Average Protein Product,[7],"19.8 Pg/mL, serum"
same,half-life,[8],8 to 10 h
